± gives the standard deviation of the averaged measurements.

Data set [1] deals with MCF7. As to the kind of experiment: percentage of EdU-negative (G0-arrested) nuclei per well, 72 h; higher = more G0 arrest. The conditions noted are these: reference: sequence is the full UniProt precursor, the tested protein was the secreted form or ectodomain.
For data set [2], the system named is hTERT-HMEC. Described as above. As to conditions: reference: sequence is the full UniProt precursor, the tested protein was the secreted form or ectodomain.
The mark [3] stands for this setting: protein concentration 0.0225 µM.
The mark [4] stands for this setting: protein concentration 0.00685714 µM.
Setting [5] is: protein concentration 0.0685714 µM.
The mark [6] stands for this setting: protein concentration 0.0308571 µM.
Setting [7] is: protein concentration 0.308571 µM.
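Also: secreted proteins added to cultured cells, EdU pulse at the end, nuclei found by Hoechst imaging, EdU status from nuclear versus surrounding ring intensity ratio, PBS as neutral control.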

“MPRYGASLRQSCPRSGREQGQDGTAGAPGLLWMGLVLALALALALALALSDSRVLWAPAEAHPLSPQGHPARLHRIVPRLRDVFGWGNLTCPICKGLFTAINLGLKKEPNVARVGSVAIKLCNLLKIAPPAVCQSIVHLFEDDMVEVWRRSVLSPSEACGLLLGSTCGHWDIFSSWNISLPTVPKPPPKPPSPPAPGAPVSRILFLTDLHWDHDYLEGTDPDCADPLCCRRGSGLPPASRPGAGYWGEYSKCDLPLRTLESLLSGLGPAGPFDMVYWTGDIPAHDVWHQTRQDQLRALTTVTALVRKFLGPVPVYPAVGNHESTPVNSFPPPFIEGNHSSRWLYEAMAKAWEPWLPAEALRTLRIGGFYALSPYPGLRLISLNMNFCSRENFWLLINSTDPAGQLQWLVGELQAAEDRGDKVHIIGHIPPGHCLKSWSWNYYRIVARYENTLAAQFFGHTHVDEFEVFYDEETLSRPLAVAFLAPSATTYIGLNPGYRVYQIDGNYSGSSHVVLDHETYILNLTQANIPGAIPHWQLLYRARETYGLPNTLPTAWHNLVYRMRGDMQLFQTFWFLYHKGHPPSEPCGTPCRLATLCAQLSARADSPALCRHLMPDGSLPEAQSLWPRPLFC”: the “percentage of EdU-negative” value is 24.3 ± 1.8% in data set [1] (setting [3]), 24.4 ± 1.7% in data set [1] (protein concentration 0.225 µM), 4.79 ± 0.51% in data set [2] (setting [3]) and 5.82 ± 1.2% in data set [2] (protein concentration 0.225 µM).
Take “MSAAWIPALGLGVCLLLLPGPAGSEGAAPIAITCFTRGLDIRKEKADVLCPGGCPLEEFSVYGNIVYASVSSICGAAVHRGVISNSGGPVRVYSLPGRENYSSVDANGIQSQMLSRWSASFTVTKGKSSTQEATGQAVSTAHPPTGKRLKKTPEKKTGNKDCKADIAFLIDGSFNIGQRRFNLQKNFVGKVALMLGIGTEGPHVGLVQASEHPKIEFYLKNFTSAKDVLFAIKEVGFRGGNSNTGKALKHTAQKFFTVDAGVRKGIPKVVVVFIDGWPSDDIEEAGIVAREFGVNVFIVSVAKPIPEELGMVQDVTFVDKAVCRNNGFFSYHMPNWFGTTKYVKPLVQKLCTHEQMMCSKTCYNSVNIAFLIDGSSSVGDSNFRLMLEFVSNIAKTFEISDIGAKIAAVQFTYDQRTEFSFTDYSTKENVLAVIRNIRYMSGGTATGDAISFTVRNVFGPIRESPNKNFLVIVTDGQSYDDVQGPAAAAHDAGITIFSVGVAWAPLDDLKDMASKPKESHAFFTREFTGLEPIVSDVIRGICRDFLESQQ”: the “percentage of EdU-negative” value in data set [1] (setting [4]) came to 23.1 ± 2.5%; in data set [1] (setting [5]), 25.4 ± 0.26%; in data set [2] (setting [4]) it was 4.89 ± 0.28%; in data set [2] (setting [5]), 7.63 ± 0.47%.
With “MGGRVFLAFCVWLTLPGAETQDSRGCARWCPQNSSCVNATACRCNPGFSSFSEIITTPTETCDDINECATPSKVSCGKFSDCWNTEGSYDCVCSPGYEPVSGAKTFKNESENTCQDVDECQQNPRLCKSYGTCVNTLGSYTCQCLPGFKFIPEDPKVCTDVNECTSGQNPCHSSTHCLNNVGSYQCRCRPGWQPIPGSPNGPNNTVCEDVDECSSGQHQCDSSTVCFNTVGSYSCRCRPGWKPRHGIPNNQKDTVCEDMTFSTWTPPPGVHSQTLSRFFDKVQDLGRDSKTSSAEVTIQNVIKLVDELMEAPGDVEALAPPVRHLIATQLLSNLEDIMRILAKSLPKGPFTYISPSNTELTLMIQERGDKNVTMGQSSARMKLNWAVAAGAEDPGPAVAGILSIQNMTTLLANASLNLHSKKQAELEEIYESSIRGVQLRRLSAVNSIFLSHNNTKELNSPILFAFSHLESSDGEAGRDPPAKDVMPGPRQELLCAFWKSDSDRGGHWATEGCQVLGSKNGSTTCQCSHLSSFAILMAHYDVEDWKLTLITRVGLALSLFCLLLCILTFLLVRPIQGSRTTIHLHLCICLFVGSTIFLAGIENEGGQVGLRCRLVAGLLHYCFLAAFCWMSLEGLELYFLVVRVFQGQGLSTRWLCLIGYGVPLLIVGVSAAIYSKGYGRPRYCWLDFEQGFLWSFLGPVTFIILCNAVIFVTTVWKLTQKFSEINPDMKKLKKARALTITAIAQLFLLGCTWVFGLFIFDDRSLVLTYVFTILNCLQGAFLYLLHCLLNKKVREEYRKWACLVAGGSKYSEFTSTTSGTGHNQTRALRASESGI”, the “percentage of EdU-negative” value came to 24.7 ± 1.8% in data set [1] (setting [3]), 26.3 ± 3.2% in data set [1] (protein concentration 0.225 µM), 5.19 ± 0.7% in data set [2] (setting [3]) and 5.66 ± 0.12% in data set [2] (protein concentration 0.225 µM).
On the same counts, the results for “MAWPLCTLLLLLATQAVALAWSPQEEDRIIEGGIYDADLNDERVQRALHFVISEYNKATEDEYYRRLLRVLRAREQIVGGVNYFFDIEVGRTICTKSQPNLDTCAFHEQPELQKKQLCSFQIYEVPWEDRMSLVNSRCQEA” are 25.7 ± 2.2%, 24 ± 0.52%, 4.46 ± 0.44% and 5.26 ± 0.68%.
For “MPLGLLWLGLALLGALHAQAQDSTSDLIPAPPLSKVPLQQNFQDNQFQGKWYVVGLAGNAILREDKDPQKMYATIYELKEDKSYNVTSVLFRKKKCDYWIRTFVPGCQPGEFTLGNIKSYPGLTSYLVRVVSTNYNQHAMVFFKKVSQNREYFKITLYGRTKELTSELKENFIRFSKSLGLPENHIVFPVPIDQCIDG”, the “percentage of EdU-negative” value in data set [1] (setting [6]) was 26.8 ± 1.9%; in data set [1] (setting [7]), 28.2 ± 1.9%; in data set [2] (setting [6]) it was 4.56 ± 0.62%; in data set [2] (setting [7]) it was 8.76 ± 0.27%.
As to “MICQKFCVVLLHWEFIYVITAFNLSYPITPWRFKLSCMPPNSTYDYFLLPAGLSKNTSNSNGHYETAVEPKFNSSGTHFSNLSKTTFHCCFRSEQDRNCSLCADNIEGKTFVSTVNSLVFQQIDANWNIQCWLKGDLKLFICYVESLFKNLFRNYNYKVHLLYVLPEVLEDSPLVPQKGSFQMVHCNCSVHECCECLVPVPTAKLNDTLLMCLKITSGGVIFQSPLMSVQPINMVKPDPPLGLHMEITDDGNLKISWSSPPLVPFPLQYQVKYSENSTTVIREADKIVSATSLLVDSILPGSSYEVQVRGKRLDGPGIWSDWSTPRVFTTQDVIYFPPKILTSVGSNVSFHCIYKKENKIVPSKEIVWWMNLAEKIPQSQYDVVSDHVSKVTFFNLNETKPRGKFTYDAVYCCNEHECHHRYAELYVIDVNINISCETDGYLTKMTCRWSTSTIQSLAESTLQLRYHRSSLYCSDIPSIHPISEPKDCYLQSDGFYECIFQPIFLLSGYTMWIRINHSLGSLDSPPTCVLPDSVVKPLPPSSVKAEITINIGLLKISWEKPVFPENNLQFQIRYGLSGKEVQWKMYEVYDAKSKSVSLPVPDLCAVYAVQVRCKRLDGLGYWSNWSNPAYTVVMDIKVPMRGPEFWRIINGDTMKKEKNVTLLWKPLMKNDSLCSVQRYVINHHTSCNGTWSEDVGNHTKFTFLWTEQAHTVTVLAINSIGASVANFNLTFSWPMSKVNIVQSLSAYPLNSSCVIVSWILSPSDYKLMYFIIEWKNLNEDGEIKWLRISSSVKKYYIHDHFIPIEKYQFSLYPIFMEGVGKPKIINSFTQDDIEKHQSDAGLYVIVPVIISSSILLLGTLLISHQRMKKLFWEDVPNPKNCSWAQGLNFQKPETFEHLFIKHTASVTCGPLLLEPETISEDISVDTSWKNKDEMMPTTVVSLLSTTDLEKGSVCISDQFNSVNFSEAEGTEVTYEDESQRQPFVKYATLISNSKPSETGEEQGLINSSVTKCFSSKNSPLKDSFSNSSWEIEAQAFFILSDQHPNIISPHLTFSEGLDELLKLEGNFPEENNDKKSIYYLGVTSIKKRESGVLLTDKSRVSCPFPAPCLFTDIRVLQDSCSHFVENNINLGTSSKKTFASYMPQFQTCSTQTHKIMENKMCDLTV”, the “percentage of EdU-negative” value in data set [1] (protein concentration 0.012 µM) was 23.4 ± 3.1%; in data set [1] (protein concentration 0.12 µM) it was 21.2 ± 0.96%; in data set [2] (protein concentration 0.012 µM), 5.06 ± 0.43%; in data set [2] (protein concentration 0.12 µM) it was 5.17 ± 0.64%.

Source of the values: the supplement of paper PMC11316812.
